Results on 1 molecule are retold here after publication doi:10.1101/2025.03.12.642038, “Structural, biophysical and biological analysis and characterisation of IRF4 DNA-binding domain mutations associated with multiple myeloma”.

A word on the Kd: it is the concentration at which binding is half-saturated.

What all share (experiment): SPR two-state kinetic; FP: PBS + 0.05% Tween20, 5 nM DNA, 1 h, room temperature; SPR: Biacore S200, SA chip, protein 0.1-4500 nM, running buffer not given in material; errors are SD
(In SPR one partner is held on a chip, and binding of the other changes the refractive index at the surface.)

Data set [1] addresses T1, IRF4 DBD C99S (Homo sapiens, UniProt Q15306 20-132, C99S).
T1 sequence: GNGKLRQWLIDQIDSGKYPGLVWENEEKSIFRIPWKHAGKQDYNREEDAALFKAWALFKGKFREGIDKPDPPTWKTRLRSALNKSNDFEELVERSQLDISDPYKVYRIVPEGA
The conditions noted are these: protein: recombinant; label: 3' biotin; hairpin, TTTT loop.

Data set [2] has as its target T2, IRF4 DBD S114N (Homo sapiens, UniProt Q15306 20-132, S114N).
T2 sequence: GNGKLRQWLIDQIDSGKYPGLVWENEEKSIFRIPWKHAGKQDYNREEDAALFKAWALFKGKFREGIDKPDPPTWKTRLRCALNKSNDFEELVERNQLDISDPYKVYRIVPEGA
To be noted: protein: recombinant; tags: N-terminal His8-linker-His8-TEV, cleaved; label: 3' biotin; hairpin, TTTT loop.

Data set [3] concerns the target T3, IRF4 DBD wild-type (Homo sapiens, UniProt Q15306 20-132).
T3 sequence: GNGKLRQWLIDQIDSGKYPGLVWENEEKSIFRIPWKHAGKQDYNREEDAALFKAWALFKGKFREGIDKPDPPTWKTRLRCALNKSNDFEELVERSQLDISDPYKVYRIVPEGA
To be noted: protein: recombinant; tags: N-terminal His8-linker-His8-TEV, cleaved; label: 3' biotin; hairpin, TTTT loop.

In data set [4] the target is T4, IRF4 DBD C99A (Homo sapiens, UniProt Q15306 20-132, C99A).
T4 sequence: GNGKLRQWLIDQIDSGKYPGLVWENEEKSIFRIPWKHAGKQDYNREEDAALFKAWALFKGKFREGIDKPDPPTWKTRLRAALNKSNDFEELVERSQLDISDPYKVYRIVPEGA
The conditions noted are these: protein: recombinant; tags: N-terminal His8-linker-His8-TEV, cleaved; label: 3' biotin; hairpin, TTTT loop.

Data set [5] concerns the target T5, IRF4 DBD K59R (Homo sapiens, UniProt Q15306 20-132, K59R).
T5 sequence: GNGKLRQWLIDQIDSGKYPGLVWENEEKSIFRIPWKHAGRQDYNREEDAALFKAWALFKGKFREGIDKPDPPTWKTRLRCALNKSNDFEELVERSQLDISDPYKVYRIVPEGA
The conditions noted are these: protein: recombinant; tags: N-terminal His8-linker-His8-TEV, cleaved; label: 3' biotin; hairpin, TTTT loop.

In data set [6] the target is T6, IRF4 DBD K123R (Homo sapiens, UniProt Q15306 20-132, K123R).
T6 sequence: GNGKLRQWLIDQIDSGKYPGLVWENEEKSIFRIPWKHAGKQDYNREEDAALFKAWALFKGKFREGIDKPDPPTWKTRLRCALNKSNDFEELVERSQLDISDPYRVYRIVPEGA
To be noted: protein: recombinant; tags: N-terminal His8-linker-His8-TEV, cleaved; label: 3' biotin; hairpin, TTTT loop.

The target of data set [7] is T7, IRF4 DBD T95R (Homo sapiens, UniProt Q15306 20-132, T95R).
T7 sequence: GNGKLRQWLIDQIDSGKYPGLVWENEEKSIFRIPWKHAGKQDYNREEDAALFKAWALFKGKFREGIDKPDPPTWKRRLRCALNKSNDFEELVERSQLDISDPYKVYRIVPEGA
To be noted: protein: recombinant; tags: N-terminal His8-linker-His8-TEV, cleaved; label: 3' biotin; hairpin, TTTT loop.

Data set [8] has as its target T8, IRF4 DBD T95A (Homo sapiens, UniProt Q15306 20-132, T95A).
T8 sequence: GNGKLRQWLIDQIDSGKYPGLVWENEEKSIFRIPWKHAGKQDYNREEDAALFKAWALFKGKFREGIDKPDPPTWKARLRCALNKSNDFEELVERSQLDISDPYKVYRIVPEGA
The conditions noted are these: protein: recombinant; tags: N-terminal His8-linker-His8-TEV, cleaved; label: 3' biotin; hairpin, TTTT loop.

Data set [9] has as its target T9, IRF4 DBD S114R (Homo sapiens, UniProt Q15306 20-132, S114R).
T9 sequence: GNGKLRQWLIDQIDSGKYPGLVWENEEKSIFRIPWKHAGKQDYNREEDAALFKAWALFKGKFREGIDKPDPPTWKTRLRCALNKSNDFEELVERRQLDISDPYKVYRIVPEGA
The conditions noted are these: protein: recombinant; tags: N-terminal His8-linker-His8-TEV, cleaved; label: 3' biotin; hairpin, TTTT loop.

For data set [10], the target named is T10, IRF4 DBD D117A (Homo sapiens, UniProt Q15306 20-132, D117A).
T10 sequence: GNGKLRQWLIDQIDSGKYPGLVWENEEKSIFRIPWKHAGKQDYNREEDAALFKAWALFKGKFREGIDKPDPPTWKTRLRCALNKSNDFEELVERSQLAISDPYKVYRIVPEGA
The conditions noted are these: protein: recombinant; tags: N-terminal His8-linker-His8-TEV, cleaved; label: 3' biotin; hairpin, TTTT loop.

For the molecule CTTGGTTTCACTTCCTGCGTTTTCGCAGGAAGTGAAACCAAG (structured_DNA) [IRE hairpin (biotin)], the Kd came to 139 ± 43 nM in data set [1]; 145 ± 151 nM in data set [2]; 187 ± 143 nM in [3]; 61 ± 29 nM in data set [4]; 460 ± 429 nM in [5]; 1110 ± 341 nM in [6]. Further, the dissociation constant Kd in data set [7] stood at 481 ± 149 nM; in data set [8], 305 ± 174 nM; in data set [9] it was 49 ± 26 nM; in data set [10], 293 ± 213 nM.
